Data on one protein can be found in patent US20250382334.

Series [1] addresses v2.2 BE-VLP MMLV gag-ABE8e fusion protein (cleavable linker VQALVLTQ).
For series [2], the target named is v2.1 BE-VLP MMLV gag-ABE8e fusion protein (cleavable linker …).
For series [3], the target named is v2.4 BE-VLP MMLV gag-ABE8e fusion protein (cleavable linker […]).
In series [4] the target is v2.3 BE-VLP MMLV gag-ABE8e fusion protein (cleavable linker […]).

B1: Moloney murine leukemia virus (MMLV) protease, supplied as wild-type MMLV gag-pro-pol polyprotein (protein)
chain: TLDDQGGQGQEPPPEPRITLKVGGQPVTFLVDTGAQHSVLTQNPGPLSDKSAWVQGATGGKRYRWTTDRKVHLATGKVTHSFLHVPDCPYPLLGRDLLTKLKAQIHFEGSGAQVMGPMGQPLQVL
As for B1, the “fraction of cleaved ABE8e versus full-length gag-ABE8e present in purified eVLPs (western blot)” value in series [1] is “the v2.4 linker is cleaved more efficiently than the v2.1 and v2.2 linkers, but less efficiently than the v2.3 linker”; in series [2] it was “the v2.4 linker is cleaved more efficiently than the v2.1 and v2.2 linkers, but less efficiently than the v2.3 linker”; in series [3], “the v2.4 linker is cleaved more efficiently than the v2.1 and v2.2 linkers, but less efficiently than the v2.3 linker”; in series [4], “the v2.4 linker is cleaved more efficiently than the v2.1 and v2.2 linkers, but less efficiently than the v2.3 linker”.
